The Kd is the free concentration of one partner at which half of the binding sites on the other are occupied at equilibrium, for simple one-to-one binding. The koff is the first-order rate constant of dissociation. A low value points to slow dissociation. One may read the kon as the second-order rate constant of association. Low readings indicate slower complex formation, high ones faster complex formation.

Experiment [1] deals with T1, endogenous vimentin (MDCK cells) (Canis lupus familiaris, UniProt A0A8C0N8E3).
T1 construct: vimentin, endogenous in MDCK cells; source: endogenous, MDCK lysate; fixed MDCK cells
The experiment is described as follows: pull-down; nanobodies covalently coupled to agarose (NHS-Sepharose) beads incubated with soluble protein fractions of cell lines (HeLa, MDCK, A549 or HEK293T), 16 h at 4 °C; immunoblot with anti-vimentin IgG. Conditions: one partner purified. (In general: Immunoblotting shows a protein as a band on a membrane.)

Experiment [2] concerns the target T2, vimentin rod domain fused to GFP (Homo sapiens, UniProt P08670).
T2 construct: vimentin central helical rod domain, aa 96-407; also called central helical rod domain (aa 96-407); source: HEK293T, transfected, in lysate
The experiment is described as follows: pull-down; immobilized nanobodies incubated with lysates of HEK293T cells transfected with GFP fusions of vimentin or its domains; immunoblot with anti-GFP antibody. Conditions: one partner purified.

Experiment [3] concerns the target endogenous vimentin (human cell lines) (human (endogenous in HeLa, HEK293T, A549, MDA-MB-231)) (UniProt P08670).
Another experiment addresses T3, purified vimentin-His6 (Homo sapiens, UniProt P08670).
T3 construct: vimentin, full length; Antigen of immunisation, biopanning and phage ELISA; details in the Supplementary methods; also called recombinant vimentin; full-length vimentin
Briefly: ELISA; solid-phase phage ELISA of 47 single clones after two cycles of biopanning against full-length vimentin. To be noted: one partner purified. On the technique in general: In an ELISA, binding on a coated surface is turned into a signal by an enzyme label.

Experiment [4] addresses T1, endogenous vimentin (MDCK cells). The experiment is described as follows: immunostaining of cells or tissue; fixed (4% PFA), permeabilised MDCK, HeLa and MDA-MB-231 cells; ATTO488-labeled nanobodies 10 ug/ml in 3% BSA in PBS, 16 h at 4 °C; compared or co-stained with an anti-vimentin IgG. Conditions: one partner purified.
The next experiment deals with T4, GFP-labeled vimentin (Homo sapiens, UniProt P08670).
T4 construct: vimentin, full length; Expression constructs are described in the Supplementary methods; also called GFP-VIM; eGFP-Vimentin; source: HEK293T, transfected, in lysate (soluble protein fraction)
The experiment is described as follows: BLI; fiber optic sensors with immobilized VB3 and VB6; serial dilutions of the soluble protein fraction of HEK293T cells comprising GFP-VIM or GFP. Conditions: one partner purified.

Substitutions are numbered along the chain they refer to.

T3 sequence (P08670 whole entry): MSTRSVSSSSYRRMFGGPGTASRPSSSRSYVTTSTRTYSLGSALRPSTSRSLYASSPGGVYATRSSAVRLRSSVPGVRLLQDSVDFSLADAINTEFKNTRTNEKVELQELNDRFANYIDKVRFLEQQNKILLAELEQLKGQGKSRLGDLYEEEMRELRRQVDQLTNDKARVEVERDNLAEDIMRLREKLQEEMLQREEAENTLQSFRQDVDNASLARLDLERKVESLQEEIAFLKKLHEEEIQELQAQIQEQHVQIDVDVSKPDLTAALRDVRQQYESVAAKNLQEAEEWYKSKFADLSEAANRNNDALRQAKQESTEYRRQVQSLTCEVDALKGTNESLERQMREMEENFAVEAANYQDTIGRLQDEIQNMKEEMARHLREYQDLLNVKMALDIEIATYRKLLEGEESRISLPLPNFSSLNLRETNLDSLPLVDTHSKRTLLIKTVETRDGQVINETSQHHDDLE
T4 sequence (P08670 whole entry): as above
endogenous vimentin (human cell lines) (human (endogenous in HeLa, HEK293T, A549, MDA-MB-231)), sequence (P08670 whole entry): as above
T1 sequence (A0A8C0N8E3 whole entry): as the sequence (P08670 whole entry) above, with A21G, S27T, V60A, N201S, E239D, E251D, V258M, T317N, S412A counted along it
T2 sequence (P08670 96-407): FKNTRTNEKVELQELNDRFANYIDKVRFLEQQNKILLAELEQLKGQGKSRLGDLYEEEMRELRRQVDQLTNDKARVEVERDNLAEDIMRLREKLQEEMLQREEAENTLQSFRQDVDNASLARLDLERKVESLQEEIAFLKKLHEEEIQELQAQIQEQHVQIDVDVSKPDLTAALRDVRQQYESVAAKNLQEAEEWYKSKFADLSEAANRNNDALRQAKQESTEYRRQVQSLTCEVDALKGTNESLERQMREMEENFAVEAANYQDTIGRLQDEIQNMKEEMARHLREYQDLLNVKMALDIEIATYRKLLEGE

B1: VB3 nanobody (VHH)
VHH: QVQLVESGGGSVQAGDSLRLSCAASGNTFSIKVMGWYRQAPGKQRELVAVSTNSGASVNYANSVKGRFTISIDSVKKTTYLQMNSLKPEDTAVYFCNAYDGRYEDYYGQGTQVTVSS
notes: By its hallmark residues derived from a heavy-chain-only antibody; Used immobilised on BLI sensors and covalently coupled to NHS-Sepharose; Construct and purification details are in the Supplementary methods; also called Nb VB3; source: E. coli, recombinantly expressed and purified
Turning to B1, the binding result in experiment [1] and in experiment [2] was “binds” in each case. In experiment [3], the FRAP in HeLa cells: half time of fluorescence recovery of the chromobody amounted to 4.3 s. In experiment [3], this molecule had an FRAP in HeLa cells: total fluorescence recovery of the chromobody in the photobleached region of 58.4%.

B2: VG1, phage-displayed clone (VHH)
VHH: B1 VHH with Q1D, S11L, D16G, R19K, A23K, N27S, F29Y, K32H, M34Y
notes: derived from a heavy-chain-only antibody
B2: in the experiment with purified vimentin-His6, the binding result is reported as “binds”.

B3: VF6, phage-displayed clone (VHH)
VHH: B1 VHH with Q1D, S11L, Q13E, D16G, N27R, I31P, K32Y, K43N
notes: as for B2
Consider B3, for which the binding result in the experiment with purified vimentin-His6 is “binds”.

B4: VC4, phage-displayed clone (VHH)
VHH: QVQLVESGGGLVQPGGSLRLSCLASGFSFGSYRMHWVRQAPGKGLEWVSGISSGGGTTYYADSVKGRFTISRDNAKNMLYLQMNNLQPEDTAVYYCLGGDWADWGQGTQVTVSS
notes: VH domain derived from a conventional IgG by its hallmark residues
Consider B4, for which, in the experiment with purified vimentin-His6, the binding result is on record as “binds”.

B5: VH3, phage-displayed clone (VHH)
VHH: QVQLVESGGGLAQPGGSLRLSCAASGFTFSSYAMSWVRQAPGKGLEWVSGITSGGSSTYYASSVKGRFTISRDNTKNTLYLQMDNLKSDDTAVYYCAKAWGSASSSRGQGTQVTVSS
notes: as for B4
As for B5, in the experiment with purified vimentin-His6, the binding result is recorded as “binds”.

B6: VB6 nanobody coupled to ATTO488 (VHH)
VHH: QVQLVESGGGLVQSGGSLTLTCAASGFTFSAASMRWVRQVPGKGLEWVATIDGTGANSYYSESAKGRFTISRDNARNTLRLQMNNLKPDDTAVYYCANFGRNYWGKGTQVTVSS
notes: also called VB6_(ATTO488); source: E. coli, purified, chemically coupled to ATTO488 NHS-ester
Take B6: the binding result in experiment [4] is recorded as “binds”.

B7: VB6 nanobody (VHH)
VHH: B6 VHH
notes: Single-domain antibody; Used immobilised on BLI sensors and covalently coupled to NHS-Sepharose; Construct details are in the Supplementary methods; also called Nb VB6; source: E. coli, recombinantly expressed and purified
In the experiment with GFP-labeled vimentin, B7 registered a Kd of 37 nM, a koff of 0.0176 s⁻¹ and a kon of 475000 M⁻¹ s⁻¹.

B8: VE3, phage-displayed clone (VHH)
VHH: QVQLVESGGGLVQPGGSLRLSCAASGSTFRIRTMGWYRQAPGKQRELVAVSTNSGGSVNYADSVKGRFTISIDSVKKTTDLQMNSLKPEDTAVYYCNAYDSDYLDYYGQGTQVTVSS
notes: as for B2
For the molecule B8, the binding result with purified vimentin-His6 is given as “binds”.

B9: VG4, phage-displayed clone (VHH)
VHH: QVQLVESGGGLVQPGGSLRLSCVASGFTFSDYWMYWVRQAPGKGLEWVSGISPGGTTTYADSVKGRFTTSRDNTRNTLYLQMNELKPEDTAVYYCAKDLNWVDSDDYWGRGTQVTVSS
notes: as for B4
As to B9, the binding result in the experiment with purified vimentin-His6 was “binds”.

Source of the values: paper PMC4544033, “Real-time analysis of epithelial-mesenchymal transition using fluorescent single-domain antibodies” (Scientific Reports, 2015).
